Source: the supplement of paper PMC10567573

B1: KRT13 (parent)
chain: TSSASVTTTSNASGRRTSDVRRP
B2: ZNF449 (parent)
chain: HTGERPYECTVCKKRFTRRSHLIG

Variants of: B1
Test: protein stability index of a GFP-peptide fusion (GPS, HEK-293T) (PSI 1-6); higher = more stable
Settings: c terminus: native
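Note: lentivirally expressed fusions sorted by FACS into six bins by GFP to DsRed ratio, PSI derived from sequencing read proportions per bin multiplied by bin number.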

Protein stability index: each site, then its substitutions
R16: E 2.08 | F 2.27 | G 1.04 | H 2.37 | I 2.33 | K 1.59 | M 2.14 | N 2.05 | P 2.52 | Q 1.52 | S 2.11 | T 3.07 | W 2.87 | Y 3.97
T17: C 2.94 | D 2.62 | E 1.63 | H 2.66 | I 3.61 | L 1.45 | M 2.44 | N 2.15 | S 2.16 | Y 2.3
S18: A 4.56 | D 2.19 | E 2.45 | F 1.56 | G 1.23 | K 1.3 | L 2.03 | M 1.77 | P 2.02 | Q 2.82 | T 2.85 | V 3.51
D19: C 2.52 | F 2.83 | H 1.73 | I 2.44 | K 2.25 | L 2.61 | M 3.59 | N 2.26 | P 2.86 | R 2.08 | S 2.07 | T 2.69 | V 3.02 | Y 1.92
V20: A 1.63 | C 2.16 | D 1.76 | E 2.52 | G 2.03 | H 2.51 | I 4.34 | K 2.73 | N 2.13 | P 2.31 | Q 2.06 | T 4.51 | Y 2.38
R21: A 5.32 | C 4.97 | D 5.12 | E 5.51 | F 5.07 | H 5.55 | I 4.91 | K 5.25 | L 4.89 | M 5.27 | N 5.24 | P 5.33 | Q 5.75 | S 5.41 | T 5.55 | V 4.97 | W 5.35 | Y 5.15
R22: A 2.49 | D 1.93 | E 1.75 | H 3.45 | I 2.77 | K 2.13 | L 1.38 | M 3.05 | N 3.07 | P 2.62 | Q 2.71 | S 1.88 | T 1.84 | V 2.08 | W 2.04 | Y 1.75
P23: C 2.42 | E 1.59 | F 4.92 | G 3.15 | H 1.77 | I 4.47 | K 4.84 | L 4.45 | M 4.45 | N 2.27 | Q 3.43 | R 3.9 | S 2.36 | T 4.53 | W 4.6 | Y 4.86

Variants of: B2
Test: as above
Settings: c terminus: a fixed tail appended

Protein stability index: each site, then its substitutions
H1: A 2.47 | C 2.48 | D 2.19 | E 2.6 | F 1.78 | G 1.83 | I 1.74 | K 2.6 | L 1.79 | M 2.96 | P 2.59 | S 1.85 | T 1.7 | V 2.39 | W 2 | Y 2.98
T2: A 2.85 | C 1.42 | D 2.23 | E 2.94 | F 2.08 | G 2.55 | H 3.18 | I 1.47 | K 2.4 | L 2.45 | M 1.76 | N 2.13 | P 1.8 | Q 2.24 | R 2.12 | S 1.83 | V 1.97 | W 2.13 | Y 1.9
G3: A 2.63 | C 3.04 | D 2.44 | E 2.26 | F 2.06 | H 3.28 | I 2.39 | K 2.2 | L 3.83 | M 2.38 | N 1.85 | P 2.52 | Q 3.59 | R 1.73 | S 2.33 | T 2.12 | V 1.82 | W 2.43 | Y 1.9
